According to doi:10.1101/2023.02.19.529138 (bioRxiv, 2023):

Experiments:
Experiment in all cases: single-molecule photobleaching step analysis
[1] = biological target: LeuT (Aquifex aeolicus)
[2] = biological target: T1, KcsA (Streptomyces lividans), P0A334; settings: remark: other sources report otherwise
T1 chain: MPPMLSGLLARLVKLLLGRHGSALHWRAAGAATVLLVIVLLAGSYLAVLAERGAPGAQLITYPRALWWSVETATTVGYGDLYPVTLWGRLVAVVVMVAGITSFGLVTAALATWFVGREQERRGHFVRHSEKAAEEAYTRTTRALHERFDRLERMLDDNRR

[3] = biological target: the molecule itself

Molecule LeuT (natural protein) has a percent dimer [1] of 75% and a percent monomer [1] of 14%.

B1: KcsA, P0A334 1-160 (natural protein)
chain: T1 chain
B1 was tested, and the stoichiometry N [2] was 4.

B2: SemiSWEET (natural protein)
chain: MALIERIGKALEPLMLVMGLISPLATMPQLYKLYVSHSEHALGLSLTTWLLYSFIALLWTIYGIYHKNPTIWVGNCLGFLMYVAMVVGIIAHTGGTY
With B2 the “stoichiometry N” value [3] was 2.
